Reference: paper PMC10804554, “The DNA damage sensor ATM kinase interacts with the p53 mRNA and guides the DNA damage response pathway” (Molecular Cancer, 2024)

B1: recombinant FAT domain of ATM (rFAT), his-tagged (domain or fragment)
chain: EVAKVAQSCAAHFTALLYAEIYADKKSMDDQEKRSLAFEEGSQSTTISSLSEKSKEETGISLQDLLLEIYRSIGEPDSLYGCGGGKMLQPITRLRTYEHEAMWGKALVTYDLETAIPSSTRQAGIIQALQNLGLCHILSVYLKGLDYENKDWCPELEELHYQAAWRNMQWDHCTSVSKEVEGTSYHESLYNALQSLRDREFSTFYESLKYARVKEVEEMCKRSLESVYSLYPTLSRLQAIGELESIGELFSRSVTHRQLSEVYIKWQKHSQLLKDSDFSFQEPIMALRTVILEILMEKEMDNSQRECIKDILTKHLVELSILARTFKNTQLPERAIFQIKQYNSVSCGVSEWQLEEAQVFWAKKEQSLALSILKQMIKKLDASCAANNPSLKLTYTECLRVCGNWLAETCLENPAVIMQTYLEKAVEVAGNYDGESSDELRNGKMKAFLSLARFSDTQYQRIENYMKSSEFENKQALLKRAKEEVGLLREHKIQTNRYTVKVQRELELDELALRALKEDRKRFLCKAVENYINCLLSGEEHDMWVFRLCSLWLENSGVSEVNGMMKRDGMKIPTYKFLPLMYQLAARMGTKMMGGLGFHEVLNNLISRISMDHPHHTLFIILALANA
B2: recombinant PI3K domain of ATM (rPI3K), his-tagged (domain or fragment)
chain: FKAEFRLAGGVNLPKIIDCVGSDGKERRQLVKGRDDLRQDAVMQQVFQMCNTLLQRNTETRKRKLTICTYKVVPLSQRSGVLEWCTGTVPIGEFLVNNEDGAHKRYRPNDFSAFQCQKKMMEVQKKSFEEKYEVFMDVCQNFQPVFRYFCMEKFLDPAIWFEKRLAYTRSVATSSIVGYILGLGDRHVQNILINEQSAELVHIDLGVAFEQGKILPTPETVPFRLTRDIVDGMGITGVEGVFRRCCEKTMEVMRNSQETLLTIVEVLLYDPLFDWTMNPLKALYLQQRPEDETELHPTLNADDQECKRNLSDI

Target: T1, recombinant MDM2 protein (UniProt Q00987 1-491)
T1 construct: MDM2 E3 ubiquitin ligase, recombinant version used in sandwich ELISA; Source, limits and tags of the recombinant MDM2 may stand in Supplementary Methods; source: recombinant
T1 sequence (Q00987 whole entry): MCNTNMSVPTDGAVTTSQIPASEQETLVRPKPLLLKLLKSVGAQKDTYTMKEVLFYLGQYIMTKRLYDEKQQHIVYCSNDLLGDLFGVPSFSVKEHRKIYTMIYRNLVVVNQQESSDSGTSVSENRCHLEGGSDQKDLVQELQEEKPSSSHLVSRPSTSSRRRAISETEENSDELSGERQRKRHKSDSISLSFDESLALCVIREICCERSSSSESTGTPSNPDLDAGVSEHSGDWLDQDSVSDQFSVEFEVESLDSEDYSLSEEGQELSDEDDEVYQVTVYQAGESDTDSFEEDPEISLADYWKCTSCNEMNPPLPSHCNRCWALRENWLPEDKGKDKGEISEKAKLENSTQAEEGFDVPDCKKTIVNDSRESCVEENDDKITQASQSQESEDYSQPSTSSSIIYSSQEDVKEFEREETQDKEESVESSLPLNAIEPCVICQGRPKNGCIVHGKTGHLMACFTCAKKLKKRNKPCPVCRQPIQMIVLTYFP
Test: ELISA; protein-protein sandwich ELISA on 96-well plates with his-tagged recombinant FAT or PI3K domain and recombinant MDM2; details in Supplementary Methods

Binder | Kd
B1 | 30 nM
B2 | 186 nM
